B1: CFP-T7-H21 (protein)
chain: MTSNRADTRVIVVGGGGTIGSSTALHLVRSGYAPANITVLDTFEIPSAQSAGHDLNKIMGIDLRNKVDLQMSLEARQMWKEDELFQPFFHNTGRMDCEHTPEGIEKLKKLYQRLHDAGAGLEKTHAWLDNEDEILSKMPLLQRDQIQGWKAIWSQDGGWLAAAKAINAIGQFLKERGVKFGFGGAGSFKQPLFDDEGTTCIGVETADGTKYYADKVVLAAGAWSPTLVDLEDQCCSKAWVYAHIQLTPEEAAEYKGVPVVYNGEFGFFFEPDEFGVIKVCDEFPGFSRFKEHQPYGAPSPKRISVPRSHAKHPTDTYPDASEVSIKKAIATFLPRFQDKELFNRALCWCTDTADAALLMCEHPKWKNFILATGDSGHSFKILPNVGKYVVELIEGRLPEEMAYQWRWRPGGDALKSRRAAPPKDLADMPGWKHDPKL
B2: CFP-T7-62D (protein)
chain: B1 chain with K106D, L110Q, R113A
B3: FAOAo2 (protein)
chain: MTVTKSSSILIIGAGTWGASTALHLGRRGYTNVTVLDPYTVPSAISAGNDVNKIISSGQYSNKKDEIEVNEILAEEAFKGWTTDPLFKPYYHDTGVVMSACSSAGLDRLGIRVRPEEEPDVSEVTKPEHFRQLAPAVLKGNFPGWRGYHIRSNAGWAHARNALVAAIREAEKLGVKFVTGTQGRVITLIFENNDVKGAVTADGKIWRAEQTVLCAGANAAQFLDFKDQLRPTAWTLAHIRLKPEERALYKNLPVIFNIEKGFFFEPDEERGEIKICDEHPGYTNMVKSADGHLTSLPFEKTQIPKESEARVRALLSETMPQLADRPFSFARVCWCADTANREFIIDRHPEHPSLVLGCGASGRGFKYLPSIGNLIVDAIEDKVPEKVHKLTRWSPDIAVDRKWRDTLGRFGGPNRVMDFHDVKEWTNVQNKDTAKL
B4: CFP-T7-H25 (protein)
chain: B1 chain with L63D, R113K
B5: CFP-T7-H28 (protein)
chain: B1 chain with L63H, E102K, R113K
B6: CFP-T7-H13 (protein)
chain: B1 chain with K106D, R113K
B7: CFP-T7-H1 (protein)
chain: B1 chain with D62A, K106D, L110Q, R113A
B8: CFP-T7-H26 (protein)
chain: B1 chain with L63H, R113K
B9: CFP-T7-H12 (protein)
chain: B1 chain with K106R, R113A
B10: CFP-T7-H27 (protein)
chain: B1 chain with L63K, R113K
B11: CFP-T7-H10 (protein)
chain: B1 chain with K106A, R113A
B12: CFP-T7-H8 (protein)
chain: B1 chain with R64E, K106D, R113A
B13: CFP-T7-H24 (protein)
chain: B1 chain with L63A, R113K
B14: CFP-T7-H29 (protein)
chain: B1 chain with L63H, R113K, A419K
B15: CFP-T7-H14 (protein)
chain: B1 chain with K106D
B16: CFP-T7-H11 (protein)
chain: B1 chain with R113A
B17: CFP-T7-H7 (protein)
chain: B1 chain with R64A, K106D, R113A
B18: CFP-T7-H9 (protein)
chain: B1 chain with R64H, K106D, R113A

Changes are numbered by the printed parent chain. “And” between values parts separate entries of the source, which are not always exact repeats. Equal values may be shown once.

Consider 18 proteins from patent publication US20160274129.

For one data set, the target named is T1, α-fructosyl-valyl-histidine.
T1 chain: VH
Protein B1 came in with a Specific activity (U/mg), 1 mM αFVH, purified enzyme of 4.05 U/mg.

On to B2, for which the Specific activity (U/mg), 1 mM αFVH, purified enzyme was found to be 1.62 U/mg.

Another data set has as its target T2, α-fructosyl-valyl-histidyl-leucyl-threonyl-proryl-glutamic acid.
T2 chain: VHLTPE
Protein B3 had a Specific activity (U/mg), 1 mM αF6P, purified enzyme of 0.0022 U/mg.

On to B1, for which the Specific activity (U/mg), 1 mM αF6P, purified enzyme was determined as 0.795 U/mg; the αF6P oxidation activity (crude enzyme; αFVH oxidation activity = 100) (relative (αFVH = 100)) was determined as 20.8; the αF6P/αFV is 0.0377 and 0.0372; the αF6P/αFVH is 0.196 and 0.208.

In the case of B4, the αF6P oxidation activity ratio (crude enzyme; CFP-T7-H20 = 100) (relative (CFP-T7-H20 = 100)) worked out at 24.

On to B5, for which the αF6P oxidation activity (crude enzyme; αFVH oxidation activity = 100) (relative (αFVH = 100)) was 134, the αF6P oxidation activity ratio (crude enzyme; CFP-T7-H26 = 100) (relative (CFP-T7-H26 = 100)) turned out to be 117, the αF6P/αFV amounted to 0.124 and the αF6P/αFVH came to 1.34.

On to B6, for which the αF6P oxidation activity (crude enzyme; αFVH oxidation activity = 100) (relative (αFVH = 100)) came out at 4.33, the αF6P oxidation activity ratio (crude enzyme; CFP-T7-H6 = 100) (relative (CFP-T7-H6 = 100)) is 207, the αF6P/αFV turned out to be 0.00579 and the αF6P/αFVH is 0.0433.

With B7, the αF6P oxidation activity (crude enzyme; αFVH oxidation activity = 100) (relative (αFVH = 100)) came to 0.0316, the αF6P/αFV amounted to 0.000222 and the αF6P/αFVH is 0.000316.

Regarding B8, the αF6P oxidation activity (crude enzyme; αFVH oxidation activity = 100) (relative (αFVH = 100)) turned out to be 84.3, the αF6P oxidation activity ratio (crude enzyme; CFP-T7-H20 = 100) (relative (CFP-T7-H20 = 100)) was determined as 142, the αF6P/αFV came out at 0.0773 and the αF6P/αFVH worked out at 0.843.

In the case of B9, the αF6P oxidation activity (crude enzyme; αFVH oxidation activity = 100) (relative (αFVH = 100)) was 11.6, the αF6P oxidation activity ratio (crude enzyme; CFP-T7-H6 = 100) (relative (CFP-T7-H6 = 100)) turned out to be 636, the αF6P/αFV is 0.0165 and the αF6P/αFVH was determined as 0.116.

In the case of B10, the αF6P oxidation activity ratio (crude enzyme; CFP-T7-H20 = 100) (relative (CFP-T7-H20 = 100)) turned out to be 7.

As for B11, the αF6P oxidation activity ratio (crude enzyme; CFP-T7-H6 = 100) (relative (CFP-T7-H6 = 100)) is 301.

In the case of B12, the αF6P oxidation activity ratio (crude enzyme; CFP-T7-H6 = 100) (relative (CFP-T7-H6 = 100)) is 2.

Regarding B13, the αF6P oxidation activity (crude enzyme; αFVH oxidation activity = 100) (relative (αFVH = 100)) is 86.7, the αF6P oxidation activity ratio (crude enzyme; CFP-T7-H20 = 100) (relative (CFP-T7-H20 = 100)) is 123, the αF6P/αFV is 0.0461 and the αF6P/αFVH was determined as 0.867.

On to B2, for which the Specific activity (U/mg), 1 mM αF6P, purified enzyme is 0.018 U/mg; the “fold of specific activity on αF6P against PnFX (Amadoriase 26/Comparative Example 3)” value is listed as 2 times (Amadoriase 26/Comparative Example 3) to 1,940 times (Amadoriase 25/Comparative Example 2); the αF6P/αFV worked out at 0.00113; the αF6P/αFVH worked out at 0.00132.

In the case of B14, the αF6P oxidation activity (crude enzyme; αFVH oxidation activity = 100) (relative (αFVH = 100)) was found to be 111, the αF6P oxidation activity ratio (crude enzyme; CFP-T7-H26 = 100) (relative (CFP-T7-H26 = 100)) is 102, the αF6P/αFV was 0.111 and the αF6P/αFVH was 1.11.

Regarding B15, the αF6P oxidation activity (crude enzyme; αFVH oxidation activity = 100) (relative (αFVH = 100)) is 4.22, the αF6P oxidation activity ratio (crude enzyme; CFP-T7-H6 = 100) (relative (CFP-T7-H6 = 100)) turned out to be 183, the αF6P/αFV worked out at 0.00519 and the αF6P/αFVH was found to be 0.0422.

Consider B16, for which the αF6P oxidation activity (crude enzyme; αFVH oxidation activity = 100) (relative (αFVH = 100)) was found to be 12.5, the αF6P oxidation activity ratio (crude enzyme; CFP-T7-H6 = 100) (relative (CFP-T7-H6 = 100)) is 951, the αF6P/αFV came to 0.0245 and the αF6P/αFVH came to 0.125.

In the case of B17, the αF6P oxidation activity ratio (crude enzyme; CFP-T7-H6 = 100) (relative (CFP-T7-H6 = 100)) turned out to be 17.

With B18, the αF6P oxidation activity ratio (crude enzyme; CFP-T7-H6 = 100) (relative (CFP-T7-H6 = 100)) was 44.
